For test [1], the system named is Escherichia coli strain DB3.1. As to the kind of experiment: microdilution assay of hβD2 coated biopolymers (percentage killing). In kind it is cell-based. To be noted: blocking substance alone, without hβD2. The protocol: Microdilution assay. In the microdilution assay the microorganisms were exposed to a potential bio-active substance in liquid surrounding, thus free to move. This potential bio-active substance was either homogenously dispersed in the liquid surrounding by active mixing at the beginning of the tests or could spread out of the sample during incubation time. The bioactivity was measured in percentage killing, wherein the number of colony forming units (CFU) in a control without test substance was set to 0% killing and a reduction in the cell number to zero was set to 100% killing.
Fresh cells were harvested by centrifugation at 1600 rpm for 10 min, the supernatant was removed and the cell pellet was resuspended in 5 ml 10 mM sodium phosphate buffer. This procedure was repeated twice. The optical density was adjusted to OD600 of 0.500 with 10 mM sodium phosphate buffer. 100 μl of the bacterial suspension was pipetted in one well of a microtiter plate without optimized surface. 10 μl test substance or test sample was added. In case of a test substance, the mixture was homogenized by absorbing the mixture several times with a pipette. The microtiter plate is then closed with parafilm and incubated at 37° C. for 2 h. After incubation the substances in the wells were mixed by a pipette. […] For evaluation, the grown colonies were counted.
The microdilution assay facilitates the examination of the hβD2 release kinetics of the biopolymers and thus allowed conclusions on what amounts of hβD2 in which time could be released. For comparing on evaluation of the assay the effect of directly applied hβD2 amounts with the effect of hβD2 amounts applied on biopolymers, the achieved percentage killing of bacteria was compared to the killing rate of the hβD2 standard series in the microdilution assays.
The collagen scaffolds and polylactide matrices were examined in the microdilution assay regarding their hβD2 release kinetics. Since the incubation time of the samples in the bacterial suspension is limited, the samples were stored at −25° C. after the test and until completion of a further assay. The thawed samples were then used in a new assay and were incubated again.
In general terms: In broth dilution the organism is exposed to a series of concentrations in liquid medium.

In test [2] the test system is gram-positive bacteria. To be noted: covalently attached onto titanium surfaces, in vitro; cited from earlier work.
The target in test [3] is collagen scaffold (bovine collagen type I) (bovine, UniProt P02453 162-1217; P02465 80-1117, limits assumed). Briefly: cell-based or functional assay.
Sequence of collagen scaffold (bovine collagen type I) (P02453 162-1217 limits assumed, chain 1 of 2): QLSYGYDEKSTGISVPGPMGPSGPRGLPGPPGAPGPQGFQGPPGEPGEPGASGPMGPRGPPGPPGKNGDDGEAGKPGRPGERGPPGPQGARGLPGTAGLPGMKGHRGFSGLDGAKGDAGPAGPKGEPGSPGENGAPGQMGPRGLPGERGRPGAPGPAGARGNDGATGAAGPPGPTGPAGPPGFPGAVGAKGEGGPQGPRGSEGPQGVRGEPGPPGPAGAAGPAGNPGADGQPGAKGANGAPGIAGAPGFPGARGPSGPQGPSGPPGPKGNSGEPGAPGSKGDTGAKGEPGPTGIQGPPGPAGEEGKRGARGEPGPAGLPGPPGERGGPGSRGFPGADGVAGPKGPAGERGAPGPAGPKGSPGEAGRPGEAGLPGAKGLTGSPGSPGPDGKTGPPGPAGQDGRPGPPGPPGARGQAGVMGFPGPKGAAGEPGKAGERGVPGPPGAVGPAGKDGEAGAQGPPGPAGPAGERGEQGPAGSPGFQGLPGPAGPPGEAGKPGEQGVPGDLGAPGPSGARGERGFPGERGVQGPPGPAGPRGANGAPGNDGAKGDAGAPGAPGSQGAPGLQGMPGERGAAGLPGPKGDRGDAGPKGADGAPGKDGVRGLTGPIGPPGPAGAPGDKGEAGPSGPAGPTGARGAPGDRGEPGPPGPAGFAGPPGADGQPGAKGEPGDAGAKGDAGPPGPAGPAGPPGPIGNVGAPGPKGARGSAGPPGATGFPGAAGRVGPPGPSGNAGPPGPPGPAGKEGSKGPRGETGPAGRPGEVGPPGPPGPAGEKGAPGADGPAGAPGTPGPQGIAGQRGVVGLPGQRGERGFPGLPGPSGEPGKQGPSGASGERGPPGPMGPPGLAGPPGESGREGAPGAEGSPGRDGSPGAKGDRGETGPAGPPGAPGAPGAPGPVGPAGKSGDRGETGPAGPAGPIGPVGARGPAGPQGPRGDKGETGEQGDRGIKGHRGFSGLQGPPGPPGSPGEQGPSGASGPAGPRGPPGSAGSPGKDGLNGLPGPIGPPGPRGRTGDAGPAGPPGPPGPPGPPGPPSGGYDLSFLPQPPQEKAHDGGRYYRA
Sequence of collagen scaffold (bovine collagen type I) (P02465 80-1117 limits assumed, chain 2 of 2): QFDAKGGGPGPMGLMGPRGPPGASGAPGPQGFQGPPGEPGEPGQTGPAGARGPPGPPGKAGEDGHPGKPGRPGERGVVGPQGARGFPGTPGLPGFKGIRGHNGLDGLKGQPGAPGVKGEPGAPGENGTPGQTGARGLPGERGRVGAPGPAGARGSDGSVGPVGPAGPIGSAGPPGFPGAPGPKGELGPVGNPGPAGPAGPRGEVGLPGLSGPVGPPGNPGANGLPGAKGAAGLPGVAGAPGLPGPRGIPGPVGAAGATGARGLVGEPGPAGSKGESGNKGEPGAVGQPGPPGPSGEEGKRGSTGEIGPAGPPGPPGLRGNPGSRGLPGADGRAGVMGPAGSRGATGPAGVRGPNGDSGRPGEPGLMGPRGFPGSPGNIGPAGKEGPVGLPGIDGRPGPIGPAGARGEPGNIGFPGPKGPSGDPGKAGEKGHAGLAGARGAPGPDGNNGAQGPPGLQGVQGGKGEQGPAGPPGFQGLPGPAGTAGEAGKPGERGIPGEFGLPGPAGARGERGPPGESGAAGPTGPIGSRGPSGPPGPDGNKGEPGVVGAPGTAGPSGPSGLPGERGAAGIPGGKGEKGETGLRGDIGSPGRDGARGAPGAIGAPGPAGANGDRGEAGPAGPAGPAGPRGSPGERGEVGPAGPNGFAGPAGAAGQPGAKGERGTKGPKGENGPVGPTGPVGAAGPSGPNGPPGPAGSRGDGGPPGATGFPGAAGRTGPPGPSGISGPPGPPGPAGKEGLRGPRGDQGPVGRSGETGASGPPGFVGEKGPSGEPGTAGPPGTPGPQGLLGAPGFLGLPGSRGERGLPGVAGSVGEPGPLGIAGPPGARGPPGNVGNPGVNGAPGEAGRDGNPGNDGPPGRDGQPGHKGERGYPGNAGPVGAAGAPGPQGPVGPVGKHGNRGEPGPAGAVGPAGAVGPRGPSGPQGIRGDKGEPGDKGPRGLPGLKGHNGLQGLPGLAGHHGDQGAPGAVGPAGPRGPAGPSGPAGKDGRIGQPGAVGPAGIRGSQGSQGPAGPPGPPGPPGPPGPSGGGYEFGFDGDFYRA
For test [4], the system named is Escherichia coli strain DB3.1. Briefly: micro-dilution assay of coated titanium pins and peptide controls (bacterial killing, CFU). The class given is cell-based. The settings on record: for antibacterial activity, killing: 10 μg coated on SAM 1, SAM 2, SAM 3 titanium pins, 2 h. The protocol: In a first experiment 10 μg of hβD2 was coated to three different SAM Hexadecyltrimethoxysilane (SAM 1), Dimethoxymethyloctylsilane (SAM 2), and oxidized Allyltrimethoxysilane (SAM 3) of the modified titanium pins. The anti-bacterial activity of the hβD2-coated pins was tested by a micro-dilution assay. Therefore, Escherichia coli strain DB3.1 (Invitrogen, Cat. No. 11782-018) was used. E. coli was streaked from a glycerol stock onto a Brain Heart Infusion (BHI) agar plate (3.7% (w/v) BHI Bouillon, 1.5% (w/v) Agar), grown overnight at 37° C. and subsequently used to inoculate 40 ml of 3.7% (w/v) BHI Bouillon without any antibiotics in 100 ml flasks. Fresh cells were harvested by centrifugation at 16000 rpm for 10 min and washed twice with 10 mM sodium phosphate buffer, pH 7.2. The optical density was adjusted to 10^4 cells/ml. For anti-bacterial testing, a single pin coated with hβD2 was incubated in one well of a microtiter plate containing 100 μl of the bacterial suspension.
Functionalized titanium pins without hβD2 served as negative controls (SAM1-n, SAM2-n, SAM3-n, SAM4::Col-NHS-n, SAM4::Col-Glu-n). In addition, 5 independent control reactions consisting of hβD2 in a final amount of 0 (NC), 0.02 (PC1), 0.2 (PC2), 2 (PC3) and 10 (PC4) μg were examined in parallel. To determine the specificity of the anti-bacterial activity of hβD2, 10 μl (10 μg/ml in PBS) of polyclonal monospecific anti-hβD2 antibodies were co-incubated with 10 μg of hβD2 and bacterial cells (Table I, PC4/ab).
The microtiter plates were incubated for 2 h at 37° C. The kinetic studies were performed by replacing the bacterial suspension, after 2 h of cultivation with a freshly pre-cultured E. coli solution, which contained the same bacterial concentration, and cultivating for another 2 h and so on. Colony forming units (CFU) were determined after plating 100 μl of a 1:100 dilution of the bacterial suspension on petri dishes with BHI medium and incubating them overnight at 37° C. For every group of the functionalized titanium pins and the controls, 5 independent anti-bacterial assays were performed. A control (NC) of bacterial growth was examined for every independent assay. The number of CFU on the control (consisting of a single petri dish) was set to 0% bactericidal activity. The reduction in the CFU resulting from the anti-bacterial activity of hβD2 was related to the absolute CFU of the control within every independent assay. This value, given as a percentage of the bacterial “killing” activity, was used to describe the antibacterial activity. This kind of normalisation of the antibacterial data was performed for every experimental group.
To examine the release behavior of hβD2 that is adsorbed by different SAM modified titanium pins a time kinetic experiment was performed. The experiment was performed analogous to Example 2. For this experiment 80 μg of hβD2 was adsorbed to three different SAMs Hexadecyltrimethoxysilane (SAM1), Dimethoxymethyloctylsilane (SAM2), and oxidized Allyltrimethoxysilane (SAM3) of the modified titanium pins.
Since it is known that collagen has a positive impact on wound healing, functionalised titanium pins with collagen were investigated. Two different cross-linking strategies for collagen on SAM3 and SAM4 were applied as described in Example 1: (i) a covalently binding strategy with the NHS/EDC cross-linking system, and (ii) the use of glutaraldehyde. Successful binding of collagen was monitored by collagen-specific DirectRed staining (as described in Example 1). […] Additionally 80 μg hβD2 was adsorbed to collagen functionalized SAM3 and SAM4 modified titanium pins, respectively. For monitoring the antibacterial activity of the bio-coated pins the experiment was performed analogous to Example 3. […]

Setting [5] is: 80 μg adsorbed on SAM3 titanium pins, 6 h.
Setting [6] is: 80 μg on collagen SAM4 pins, NHS/EDC-system, 4 h.
[7] abbreviates: 80 μg on collagen SAM4 pins, NHS/EDC-system, 6 h.
Setting [8] is: 80 μg on collagen SAM4 pins, glutaraldehyde, 4 h.
[9] abbreviates: 80 μg on collagen SAM4 pins, glutaraldehyde, 6 h.

These results are taken from US20110311601A1, “ANTIMICROBIAL MEDICAL DEVICES” (priority 2010, published 2011).

Where no end group is shown, it is not given here.

For the molecule `O=C([O-])CC(O)(CC(=O)[O-])C(=O)[O-].[Na+].[Na+].[Na+]` [Sodium citrate, sodium citrate, reference compound], the “self-activity (killing / reduction of the number of bacteria)” value in test [1] was determined as 100%.
On the same count and under the same terms, the result for `NCCCCNCCCN` [spermidine, reference compound] reads 35%.
As to `NCCCC[C@H](N)C(=O)O` [L-lysine, reference compound], the “self-activity (killing / reduction of the number of bacteria)” value in test [1] is listed as 4%.
The same measure, in the same setting: the same measure for “chondroitin sulphate [reference compound]”: 23%; for poly-L-lysine [reference compound]: 100%.
The same measure, in the same setting: the result for `N[C@@H](CCC(=O)O)C(=O)O` [L-glutamic acid, reference compound] reads 4%.
The same measure, in the same setting: the result for “poly-L-glutamic acid [reference compound]” reads “no self-activity”.
For `CN[C@H](CC(C)C)C(=O)N[C@H]1C(=O)N[C@@H](CC(N)=O)C(=O)N[C@H]2C(=O)N[C@H]3C(=O)N[C@H](C(=O)N[C@H](C(=O)O)c4cc(O)cc(O)c4-c4cc3ccc4O)[C@H](O)c3ccc(c(Cl)c3)Oc3cc2cc(c3O[C@@H]2O[C@H](CO)[C@@H](O)[C@H](O)[C@H]2O[C@H]2C[C@](C)(N)[C@H](O)[C@H](C)O2)Oc2ccc(cc2Cl)[C@H]1O` [vancomycine], in test [2], the “reduced colony-forming of gram-positive bacteria” value was “up to 88%”.
Turning to GIGDPVTCLKSGAICHPVFCPRRYKQIGTCGLPGTKCCKKP (ends and bridges not checked; cysteine pairing not given here) [human β-defensin-2], in test [3], the “hβD2 released by the scaffold (agar diffusion assay, zone of inhibition against E. coli, 10 µg hβD2 applied)” value was found to be 40% and the “hβD2 retarded by the scaffold (agar diffusion assay, zone of inhibition against E. coli, 10 µg hβD2 applied)” value was 60%.

B1: Ribonuclease 7 (protein)
chain: KPKGMTSSQWFKIQHMQPSPQACNSAMKNINKHTKRCKDLNTFLHEPFSSVAATCQTPKIACKNGDKNCHQSHGPVSLTMCKLTSGKYPNCRYKEKRQNKSYVVACKPPQKKDSQQFHLVPVHLDRVL
modifications: Homo sapien
In the case of B1, in test [4], the “antibacterial activity, killing” value is listed as “about 90%”. For the same molecule, the killing rate is given as 21% in test [4] (setting [5]); 49% in test [4] (setting [6]); “about 22%” in test [4] (setting [7]); 77% in test [4] (setting [8]); “about 8%” in test [4] (setting [9]).

B2: mutRNAse7: Ribonuclease 7 derivative, SEQ ID NO: 10 (protein)
chain: KPKGMTSSQWFKIQHMQPSPQACNSAMKNINKHTKRCRDLNTFLHEPFSSVAATCQTPKIACKNGDKNCHQSHGPVSLTMCKLTSGKYPNCRYKEKRQNKSYVVACKPPQKKDSQQFHLVPVDLDRVL
modifications: Synthetic primer
As for B2, the “antibacterial activity, killing” value in test [4] is “about 90%”. Also, the killing rate in test [4] (80 μg adsorbed on SAM1 titanium pins, 6 h) was about 41%; in test [4] (setting [5]) it was 17%; in test [4] (setting [6]), 53%; in test [4] (setting [7]) it was about 17%; in test [4] (setting [8]) it was 75%; in test [4] (setting [9]) it was about 15%.
